± gives the half width of the 95% confidence interval.
Experiments:
[1] = folding stability dG unfold from trypsin proteolysis; higher = more stable
Summary of the method: (§1)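 Mini-proteins designed to be under 80 residues and free of cysteine were carried in a PA-tagged cDNA display construct and digested with trypsin and with chymotrypsin. Each protease was applied at 11 threefold-diluted concentrations, alongside a no-protease condition, before sequencing. K50 came from Bayesian fitting of the sequencing counts, and unfolding free energy was obtained by comparing it with a sequence-predicted unfolded-state K50 and a shared folded-state K50, for each protease separately or for both together. Designs were retained only if their AlphaFold2 dimer inter-PAE exceeded 15.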

[2] = folding stability dG unfold from chymotrypsin proteolysis; higher = more stable
Summary of the method: as §1

[3] = folding stability dG unfold (combined trypsin and chymotrypsin); higher = more stable
Summary of the method: as §1

| Sequence | folding stability dG unfold [1] | folding stability dG unfold [2] | folding stability dG unfold [3] |
| --- | --- | --- | --- |
| SAGGKKYKVKVVSVEYDKETKEVTVKVEFEDNKVVVEKKVKVKLPPVKIEFSEEDLKEGKVEIKIEFSAGGS [r16_809_TrROS_Hall] | 1.46 ± 0.11 kcal/mol | 2.63 ± 0.049 kcal/mol | 2.27 ± 0.1 kcal/mol |
| SAGGSMEVKVVSYDEEKGVLVIEVDEDETVEELVERLRSIPGLKVEVEVVEKDGKLYVVIRVEKKESAGGSA [r2_44_TrROS_Hall] | 3.17 ± 0.13 kcal/mol | 4.27 ± 0.09 kcal/mol | 3.98 ± 0.18 kcal/mol |
| SAGGSKPIRVEIAVPPDVPLEELARRVEEELRELGFEVEVEEVSFLPEEGRVLLRFRDGAVAVIPNSAGGSA [r2_242_TrMRF] | 1.8 ± 0.022 kcal/mol | 1.85 ± 0.062 kcal/mol | 1.86 ± 0.068 kcal/mol |
| SAGGSAGGSMGYLTEPDISVTRTPDGTVTVTTTNTTYDPSTGKKLSTTTTTTTVTLAPDEELLSAGGSAGGS [r12_1038_JUSTAS] | 0.603 ± 0.056 kcal/mol | 0.628 ± 0.052 kcal/mol | 0.735 ± 0.11 kcal/mol |
| SAGGSAGGSAGGSASMSVTLERLPNGTVVKITTKSVDPSTGSVDYKPSVEKIPPGVALDSAGGSAGGSAGGS [r4_72_JUSTAS] | -0.437 ± 0.18 kcal/mol | -0.448 ± 0.1 kcal/mol | -0.515 ± 0.28 kcal/mol |
| SAGGMVLFRIRFRTGPDGIVRLDPELLEQAEGADIDEDDPRVALILAEPEFLEKLSPELLEEAEILPSAGGS [r16_328_TrMRF] | 0.607 ± 0.1 kcal/mol | 0.606 ± 0.12 kcal/mol | 0.684 ± 0.047 kcal/mol |
| SAGGGMEPKPVEVTLTIPKGTVTPEDKVPVSTIAKLLGIPEDTEVTVEKITPVPNSDTELVTLTIVTSAGGS [r16_165_JUSTAS] | 0.412 ± 0.023 kcal/mol | 0.571 ± 0.074 kcal/mol | 0.615 ± 0.12 kcal/mol |
| SAGGKVVPKNVKLPVTKEAEELAKKLAPELGYKKAEVKVKSAVEGYVKVEIYFPETGKKVEITVPVGSAGGS [r16_281_TrMRF] | -0.0217 ± 0.086 kcal/mol | 1.04 ± 0.025 kcal/mol | 0.739 ± 0.07 kcal/mol |
| SAGGSAGGSAGMIVVKSKEEIEALKKAGYEIEVKEVTVYDPKTGKKKDKFLVIEIKPKKKSAGGSAGGSAGG [r11_168_TrROS_Hall] | 1.25 ± 0.15 kcal/mol | 1.28 ± 0.06 kcal/mol | 1.29 ± 0.17 kcal/mol |
| SAGKYVTFNFPINIPPGDIKQMLNMIRDIARNLGLKPITDIEIDNIQRDDDYYRIRFEITIKVPPGDLKSAG [r5_575_TrROS] | 2.44 ± 0.18 kcal/mol | 4.29 ± 0.12 kcal/mol | 3.34 ± 0.43 kcal/mol |
| SGSPSDDIVTTPLPGPSERATFPDGSSISRSPAGVTTTTSPTSITTTTTTPSATVTSTTTSLPPPSPSAPSA [r9_901_JUSTAS] | -0.696 ± 0.034 kcal/mol | 0.184 ± 0.015 kcal/mol | -0.0591 ± 0.07 kcal/mol |
| SAGGSAGGSATVKIVETKVGADGAVYTTALVTLPNGGVLIVKTKTYPSGESETSVTLTSGKEFSAGGSAGGS [r12_995_TrMRF] | 2.21 ± 0.081 kcal/mol | 1.74 ± 0.045 kcal/mol | 2 ± 0.071 kcal/mol |
| SSVEELSPEQRREQLRELLRQIREARREGDPEEERRLLEELRRLIEQLPDEEREEVRRLLEELGLPVEELSA [r9_182_TrROS_Hall] | 4.27 ± 0.21 kcal/mol | 3.72 ± 0.19 kcal/mol | 4.05 ± 0.19 kcal/mol |
| SAGGNDDDQKPKMVRVKIKYDNPDGEKYKIDEIWVMPPPFIMIRMPGNGQEIFIPPDQIKEIEIEPVSAGGS [r8_410_TrROS] | -0.149 ± 0.28 kcal/mol | 1.09 ± 0.081 kcal/mol | 0.826 ± 0.3 kcal/mol |
| SAGGSAGGSAGIEAVVKELEELGYEVEATPEPDGSVVIEVTLKNGEKLTVRVGPFGGVEASAGGSAGGSAGG [r17_503_TrMRF] | 2.21 ± 0.14 kcal/mol | 2.2 ± 0.071 kcal/mol | 2.24 ± 0.13 kcal/mol |
| SAGGSAGGSAGMKVTATSLNPASGTVTVKFSDGTTRTFSSVEALKAAIPEGVPIEIAPAVSAGGSAGGSAGG [r17_295_JUSTAS] | 2.46 ± 0.13 kcal/mol | 2.297 ± 0.012 kcal/mol | 2.36 ± 0.051 kcal/mol |
| SAGGMPGEVVDISDVPPGATLYDPEGKSYGPVVDVRVTVGPDSVEITITFPDGTTRTITAPRDKIYILPSAG [r5_850_JUSTAS] | 1.83 ± 0.083 kcal/mol | 1.24 ± 0.065 kcal/mol | 1.59 ± 0.14 kcal/mol |
| SAGGSAGGSAGGDGEDGKPKPEPKIKIKIEVESVRNPNGFLIVTYRIPALGIWITIIINSAGGSAGGSAGGS [r10_160_TrROS] | 3.03 ± 0.15 kcal/mol | 4.91 ± 0.24 kcal/mol | 4.6 ± 0.39 kcal/mol |
| SAGTPEEVLQRAKELANRFQDRARDNGMDVKVDITQVEPNRIRINIEMRPPNGRRHRMPIEIELPKDDISAG [r5_994_TrROS] | 1.27 ± 0.079 kcal/mol | 1.65 ± 0.036 kcal/mol | 1.43 ± 0.2 kcal/mol |
| SLTLTDPVLVLVEVDLYNPETGAPTKRSLAVLVPPGTPVTVTLPGVHPDARVRVTVYTPNGKPLGEFELPSA [r9_478_TrMRF] | 2.1 ± 0.13 kcal/mol | 2.12 ± 0.12 kcal/mol | 2.26 ± 0.14 kcal/mol |
| SAGGSAGGSDETLTVTRGRTETVTVRRVERRPPAAAPPLKVTLSAVLDADGRLVSVSASVELLSAGGSAGGS [r12_727_TrROS_Hall] | 2.1 ± 0.05 kcal/mol | 1.88 ± 0.036 kcal/mol | 1.9 ± 0.15 kcal/mol |

| Sequence | folding stability dG unfold [1] | folding stability dG unfold [2] | folding stability dG unfold [3] |
| --- | --- | --- | --- |
| SAGGSAGGSAGGSSMVFELDGVRIVVTEDEVVFYPPETGKPVVLPMSNPEVQELIKELVSAGGSAGGSAGGS [r4_353_TrMRF] | 1.87 ± 0.054 kcal/mol | 1.78 ± 0.039 kcal/mol | 1.82 ± 0.083 kcal/mol |
| SAGGKNLKPIGTVTLTNPKGEKVEIVEFEGPVFVVLTPKDGSKKIVSAEGKSLEEILKELEKEGYEVEPSAG [r5_613_TrMRF] | 1.22 ± 0.061 kcal/mol | 2.15 ± 0.081 kcal/mol | 1.76 ± 0.15 kcal/mol |
| SAGGGSVPAEHLVSVSYEKPPWSDEPVITVTALKGGKPVTFTIPSSLSEEEALEAVEKAIAAGPFALGSAGG [r13_225_JUSTAS] | 0.638 ± 0.055 kcal/mol | 0.579 ± 0.13 kcal/mol | 0.675 ± 0.099 kcal/mol |
| SAGGSAGGMVTTKELPSNKTVTVTVTPDPVAGREGATVKPPSTSETKNFGDPAAAAAMSPEKLSSAGGSAGG [r6_740_JUSTAS] | 0.42 ± 0.034 kcal/mol | 0.2 ± 0.071 kcal/mol | 0.29 ± 0.15 kcal/mol |
| SAGGMVYVVRLRDEDGTEYTALVEEFDGIYRVRLFDEDGELVEEREFESVEEAIDALLAEGYEVEVYPSAGG [r13_315_TrMRF] | 4 ± 0.079 kcal/mol | 4.881 ± 0.035 kcal/mol | 4.66 ± 0.07 kcal/mol |
| KPKIVEKKEITIKLNGKTIKITLVKNKETGKYYAKIEIFEYDKNGKLVKKETITLEFDSLEDLLEALKKLAS [r1_288_TrROS_Hall] | 2.14 ± 0.091 kcal/mol | 3.67 ± 0.071 kcal/mol | 3.18 ± 0.4 kcal/mol |
| SAPPRISIPWDPESGNWRVKVYNPKDPGKKREIDIPMKELQAKHGKPMSPNEIAQWLVKKGIDYVEIYPSAG [r14_809_TrROS] | 0.183 ± 0.19 kcal/mol | 0.559 ± 0.21 kcal/mol | 0.409 ± 0.2 kcal/mol |
| SAGGKIEEILKKLNLKPGEKAKIKDIKIEVKTVTVTEKKYKNGKLVEEKEKTVTVVKIEIKIELEKPKSAGG [r13_482_TrROS_Hall] | 2.6 ± 0.18 kcal/mol | 3.97 ± 0.18 kcal/mol | 3.22 ± 0.26 kcal/mol |
| SAGGFKIEYTGNYYTIELPGLKIMVNPNMGMMRIKLPGNGKKITIPVPMNNWEDMLDAVKEILKELGSAGGS [r8_447_TrROS] | 3.17 ± 0.17 kcal/mol | 2.18 ± 0.099 kcal/mol | 2.56 ± 0.26 kcal/mol |
| SAGGNIKIEDIEIMKPMKDPDGNPDKPMYMVSIRIEHEYKYPDGPMKHKHEIMIMMPPNDPDEALDELSAGG [r13_149_TrROS] | 0.897 ± 0.081 kcal/mol | 0.758 ± 0.041 kcal/mol | 0.877 ± 0.11 kcal/mol |
| SAGGSAGGSAGGKLPPGQPIKATIEIYIFMISYDGGEPKIHEFPITIEHTFRLPDPDALSAGGSAGGSAGGS [r10_745_TrROS] | 2.14 ± 0.086 kcal/mol | 3.9 ± 0.091 kcal/mol | 3.42 ± 0.17 kcal/mol |
| KKKTIEIIFPENNLIIKIEVDEETGKELTEEEIKKLLEELFPGKDIEKMSIEEIAKRLASLPGVKKVEIYPS [r1_463_TrROS_Hall] | 3.19 ± 0.09 kcal/mol | 1.57 ± 0.07 kcal/mol | 2.46 ± 0.1 kcal/mol |
| SAGMVVVEIRTRDGRTLTVEVEAESEEEAERLARELAEELRRKFPDLEIRVERVEPPEPPEEVVEEEEESAG [r5_950_TrROS_Hall] | 3.23 ± 0.13 kcal/mol | 3.41 ± 0.13 kcal/mol | 3.42 ± 0.21 kcal/mol |
| SAGGSAGGFKIRPIGVDDNYIVFRFRPDDPEALKKLGFKITGVEESGGSVEIIFRMPPEAKDLISAGGSAGG [r6_109_TrROS] | 0.781 ± 0.12 kcal/mol | 0.399 ± 0.16 kcal/mol | 0.584 ± 0.12 kcal/mol |
| SAGMPKPIRLLVRNPETGKYFLVEVEEPEELVTVTLLDPETGEVRAVFEGPLEEIIAALEAEGFEVEPVSAG [r5_291_TrMRF] | 4.47 ± 0.16 kcal/mol | 4.438 ± 0.042 kcal/mol | 4.442 ± 0.036 kcal/mol |
| SAGMVAEEARRRASPEELAAEEAPPRPPPPVTVVTVPREVAPEVLAALAAAEDVEVEERGDELVIRVVGSAG [r14_7_JUSTAS] | -0.583 ± 0.39 kcal/mol | 0.559 ± 0.1 kcal/mol | 0.299 ± 0.19 kcal/mol |
| SAGGSAPFKIAEIESVEYDPNEGRPTIRITIEHDGRPVEIWVPPGGIQIFNMGDGEPIKEIPLDEISAGGSA [r15_85_TrROS] | 0.182 ± 0.25 kcal/mol | 0.434 ± 0.48 kcal/mol | 0.0268 ± 0.26 kcal/mol |
| SAGGMKTITLEEAKALAEKAAEKGETVEIEVTLPDGTVVKFKVDAKTKKVELVEVKKLPAPPEDPEKKSAGG [r13_839_TrROS_Hall] | 1.12 ± 0.046 kcal/mol | 3.07 ± 0.088 kcal/mol | 2.68 ± 0.13 kcal/mol |
| SAGGSMPVEIKLLEEEVLPDGVTIKKVKAEDGSEMTVTVTKLPGNTYKVTITNPANGTTSTFTLPESAGGSA [r2_361_JUSTAS] | 0.932 ± 0.035 kcal/mol | 1.73 ± 0.055 kcal/mol | 1.45 ± 0.077 kcal/mol |
| SAGGSAGGSAGITIRDPDNGMWIQIEKTPDMFKVEIEMPGNGKKVEFTFPPGQSLDDLKISAGGSAGGSAGG [r11_772_TrROS] | 0.508 ± 0.037 kcal/mol | 0.473 ± 0.085 kcal/mol | 0.571 ± 0.12 kcal/mol |
| SAGGSAGGSAGGLKPGEKLVFKTETKTLKLKAKVFNKDTGEEFEVEVELTVTRIEVYPLSAGGSAGGSAGGS [r10_1116_TrROS_Hall] | 3.04 ± 0.31 kcal/mol | 4.96 ± 0.22 kcal/mol | 4.79 ± 0.33 kcal/mol |

Reference: the supplement of paper PMC12764529
